Test [1] concerns the target baseplate center piece protein (gp114) of phage 7-7-1 (Agrobacterium phage 7-7-1). As to the kind of experiment: cryo-EM structure; single particle analysis of purified virions; baseplate region, local refinements: baseplate core complex C6 3.4 Å, tail fibers C1 3.5 Å.
For test [2], the target named is baseplate central hub protein (gp113) of phage 7-7-1 (Agrobacterium phage 7-7-1). The description is as above.
Test [3] addresses baseplate wedge 1 (gp111) of phage 7-7-1 (Agrobacterium phage 7-7-1). The description is as above.
Test [4] concerns the target baseplate wedge 2 (gp110) of phage 7-7-1 (Agrobacterium phage 7-7-1). The test is described as above.
In test [5] the target is central spike protein (gp112) of phage 7-7-1 (Agrobacterium phage 7-7-1). The test is described as above.
The target of test [6] is decoration protein (gp002) of phage 7-7-1 (Agrobacterium phage 7-7-1). As to the kind of experiment: cryo-EM structure; single particle analysis of purified virions in TM buffer (10 mM MgSO4, 20 mM Tris/HCl, pH 7.5); DNA-filled capsid, icosahedral symmetry, 3.4 Å.
Test [7] addresses garland protein (gp014) of phage 7-7-1 (Agrobacterium phage 7-7-1). Kind of test: cryo-EM structure; single particle analysis of purified virions; baseplate region, local refinements: baseplate core complex C6 3.4 Å, tail fibers C1 3.5 Å.
Test [8] addresses long tail fiber (gp015) of phage 7-7-1 (Agrobacterium phage 7-7-1). The description is as above.
Test [9] concerns the target major capsid protein (gp003) of phage 7-7-1 (Agrobacterium phage 7-7-1). Kind of test: cryo-EM structure; single particle analysis of purified virions in TM buffer (10 mM MgSO4, 20 mM Tris/HCl, pH 7.5); DNA-filled capsid, icosahedral symmetry, 3.4 Å.
The target of test [10] is neck 1 protein (gp119) of phage 7-7-1 (Agrobacterium phage 7-7-1). Kind of test: cryo-EM structure; single particle analysis of purified virions; neck region, local refinements: portal C12 3.2 Å, collar C15 3.3 Å, neck 1 C3 3.5 Å, neck 2 + tail terminator + tail sheath + tail tube C6 3.6 Å.
Test [11] has as its target neck 2 protein (gp121) of phage 7-7-1 (Agrobacterium phage 7-7-1). The description is as above.
For test [12], the target named is portal protein (gp005) of phage 7-7-1 (Agrobacterium phage 7-7-1). Described as above.
Test [13] addresses short tail fiber (gp008) of phage 7-7-1 (Agrobacterium phage 7-7-1). As to the kind of experiment: cryo-EM structure; single particle analysis of purified virions; baseplate region, local refinements: baseplate core complex C6 3.4 Å, tail fibers C1 3.5 Å.
Test [14] has as its target tail terminator protein (gp124) of phage 7-7-1 (Agrobacterium phage 7-7-1). As to the kind of experiment: cryo-EM structure; single particle analysis of purified virions; neck region, local refinements: portal C12 3.2 Å, collar C15 3.3 Å, neck 1 C3 3.5 Å, neck 2 + tail terminator + tail sheath + tail tube C6 3.6 Å.
Test [15] has as its target tail tube protein (gp127) of phage 7-7-1 (Agrobacterium phage 7-7-1). Kind of test: cryo-EM structure; single particle analysis of purified virions; extended tail, C6 helical refinement, twist 27.35°, rise 35.25 Å, 3.1 Å.
For test [16] the target is unchanged. Kind of test: cryo-EM structure; single particle analysis of purified virions; neck region, local refinements: portal C12 3.2 Å, collar C15 3.3 Å, neck 1 C3 3.5 Å, neck 2 + tail terminator + tail sheath + tail tube C6 3.6 Å.

Here are results for 15 substances from article PMC12796354.

Values joined by “and” are separate entries in the source; they are usually repeats but may differ in a detail not shown here. Identical values can stand only once.

“baseplate center piece protein (gp114) of phage 7-7-1 (natural protein)”: the stoichiometry N in test [1] came out at 6.

In turn, “baseplate central hub protein (gp113) of phage 7-7-1 (natural protein)” showed a stoichiometry N in test [2] of 3.

Take “baseplate wedge 1 (gp111) of phage 7-7-1 (natural protein)”: in test [3], the stoichiometry N is 6.

On to “baseplate wedge 2 (gp110) of phage 7-7-1 (natural protein)”, for which the stoichiometry N in [4] was determined as 2.

“central spike protein (gp112) of phage 7-7-1 (natural protein)” gave a stoichiometry N in test [5] of 3.

As for “decoration protein (gp002) of phage 7-7-1 (natural protein)”, in test [6], the stoichiometry N was 2.

Consider “garland protein (gp014) of phage 7-7-1 (natural protein)”, for which, in [7], the stoichiometry N was determined as 2.

In turn, “long tail fiber (gp015) of phage 7-7-1 (natural protein)” came in with a stoichiometry N in [8] of 3.

As for “major capsid protein (gp003) of phage 7-7-1 (natural protein)”, in test [9], the stoichiometry N is 6 and 5.

With “neck 1 protein (gp119) of phage 7-7-1 (natural protein)”, in [10], the stoichiometry N is 12.

Take “neck 2 protein (gp121) of phage 7-7-1 (natural protein)”: the stoichiometry N in test [11] turned out to be 6.

“portal protein (gp005) of phage 7-7-1 (natural protein)”: in test [12], the stoichiometry N is 12.

“short tail fiber (gp008) of phage 7-7-1 (natural protein)” gave a stoichiometry N in test [13] of 3.

For “tail terminator protein (gp124) of phage 7-7-1 (natural protein)”, the stoichiometry N in test [14] worked out at 6.

As for “tail tube protein (gp127) of phage 7-7-1 (natural protein)”, the stoichiometry N in test [15] and in [16] was 6 each time.

The term stoichiometry N denotes the number of molecules, sites or subunits per partner or assembly.
